In publication PMC8395186, “Structural Basis of Inhibition of DCLK1 by Ruxolitinib” (International Journal of Molecular Sciences, 2021):

Molecular target: the molecule itself
Experiment: crystal structure; sitting-drop vapor diffusion at 23 °C; co-crystallised with AMP-PNP, then soaked with ruxolitinib; two molecules per asymmetric unit; interface analysed with the PISA server

B1: Doublecortin-like kinase 1 (DCLK1) kinase domain (domain or fragment, UniProt O15075 372-649, looked up)
chain: GEEVSEEGFQIPATITERYKVGRTIGDGNFAVVKECVERSTAREYALKIIKKSKCRGKEHMIQNEVSILRRVKHPNIVLLIEEMDVPTELYLVMELVKGGDLFDAITSTNKYTERDASGMLYNLASAIKYLHSLNIVHRDIKPENLLVYEHQDGSKSLKLGDFGLATIVDGPLYTVCGTPTYVAPEIIAETGYGLKVDIWAAGVITYILLCGFPPFRGSGDDQEVLFDQILMGQVDFPSPYWDNVSDSAKELITMMLLVDVDQRFSAVQVLEHPWVND
notes: Doublecortin-like kinase 1 (DCLK1), kinase domain, residues Gly372-Asp649; residues 376-648 are resolved in the structure; Non-phosphorylated; Crystallised with AMP-PNP, then soaked with ruxolitinib; Two molecules per asymmetric unit form the dimer; also called DCLK1KD; source: E. coli Rosetta2(DE3)pLysS, purified (Ni-NTA, TEV cleavage, SEC); not shown: His6, N-terminal, cleaved
stoichiometry N: 2
